These results are taken from publication PMC8887544.

One may read the Kd as the constant that tells how readily two partners part at equilibrium. Low values mean tighter binding, high ones weaker binding. One may read the stoichiometry N as a count of units in the complex or per binding partner.

The first assay concerns the target Cas8f:Cas5f heterodimer (Xanthomonas albilineans, type I-F Cascade subunit) (Xanthomonas albilineans). Kind of assay: ITC; 25°C; AcrIE4-F7 (250 μM) injected into Cas8f:Cas5f (35 μM) in the cell; 20 mM Tris-HCl pH 7.5, 150 mM NaCl, 1 mM TCEP. (In general: In ITC the heat of successive injections is recorded.)
With “AcrIE4-F7^CTD (C-terminal domain of AcrIE4-F7, residues 53-119) (domain or fragment)”, the Kd worked out at 0.013 µM.

As to AcrIE4-F7 (natural protein), the Kd amounted to 0.026 µM.

The next assay concerns the target (His)6-MBP-tagged Cas8e (P. aeruginosa, type I-E) (P. aeruginosa (PRD-10 genomic DNA)). Kind of assay: ITC; 25°C; 20 μM of either AcrIE4-F7 or (His)6-MBP tagged Cas8e in the cell, titrated with 150-200 μM of the partner, both directions; 20 mM HEPES pH 7.0, 150 mM NaCl, 1 mM TCEP, 5% glycerol; triplicate.
Regarding AcrIE4-F7(D30K/E31K) (natural protein), the Kd was 4.8 µM, the dH was -46.4 kJ/mol and the stoichiometry N was found to be 0.8.

For the substance “AcrIE4-F7^NTD (N-terminal domain of AcrIE4-F7, residues 1-52) (domain or fragment)”, the dissociation constant Kd was determined as 0.14 µM, the dH was -75.7 kJ/mol and the stoichiometry N was 0.8.

With AcrIE4-F7(E12K/D13K) (natural protein), the equilibrium dissociation constant (Kd) stood at 0.4 µM, the dH is -95.4 kJ/mol and the stoichiometry N came to 0.8.

As to AcrIE4-F7 (natural protein), the Kd amounted to 0.2 µM, the dH is -61.5 kJ/mol and the stoichiometry N came out at 1.

Substance AcrIE4-F7(Y20A) (natural protein) yielded an equilibrium dissociation constant (Kd) of 3.5 µM, a dH of -23.4 kJ/mol and a stoichiometry N of 1.1.

The substance AcrIE4-F7(E46K) (natural protein) returned an equilibrium dissociation constant (Kd) of 0.43 µM, a dH of -49 kJ/mol and a stoichiometry N of 1.

In turn, AcrIE4-F7(E38K/D39K) (natural protein) registered an equilibrium dissociation constant (Kd) of 0.19 µM, a dH of -53.6 kJ/mol and a stoichiometry N of 0.9.
